Test results: the supplement of paper PMC10567573

B1: INTS3 (parent)
chain: YPPLEGHVRQGVFSSLNHIVEKRV
B2: TMEM106C (parent)
chain: FTGRDSITCLTCQGTGYIPTEQVN

Variants of: B1
Test: protein stability index of a GFP-peptide fusion (GPS, HEK-293T) (PSI 1-6); higher = more stable
Details: c terminus: a fixed tail appended
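Note: lentivirally expressed fusions sorted by FACS into six bins by GFP to DsRed ratio, PSI derived from sequencing read proportions per bin multiplied by bin number.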

Protein stability index, by site and new letter:
I19: K 2.37, V 2.52, N 3.23, W 3.41, L 1.83, S 2.53, A 3.17
R9: I 1.38, D 3.42, L 2.07, V 3.14
Q10: A 2.19, C 2.73, Y 1.99, T 1.83, N 1.96, F 2.62
S15: L 1.86, F 2.32, G 2.58, N 2.4, C 1.69
Y1: H 4.07, E 3.96, L 3.53, Q 3.48, F 2.88, C 3.94
L4: W 2.91, V 3.04, C 2.21, G 1.35, K 2.64
L16: T 2.77, E 3.65
P2: C 1.78, K 2.49, I 1.55, R 3.48, M 2.1
S14: P 2.22, D 3.52, R 3.27, E 2.73, T 2.56, A 2.75, V 2.29, G 2.61, Q 3.01
K22: L 2.33, E 2.63, R 2.75, Q 2.23, C 1.43, D 2.2
E5: M 2.24, I 1.73, Q 2.02, K 2.1, W 1.9, N 2.05, T 1.96, F 1.66
G6: A 2.38, D 2.81, S 2.73, M 2.51, V 2.07, L 2.06, K 2.13, E 3.51
N17: R 2.44, D 3.07, F 1.78, C 1.86, P 2.4, W 2.26, M 1.64
H18: V 1.36, L 1.77, Q 2.76, N 2.78, M 3.03, K 2.86
R23: K 2.7, P 2.39, N 2.6
V8: G 2.19, K 2.84, H 2.48, N 2.55, I 2.38, P 2.31, C 2.86
V24: M 2.06, Q 2.57, H 2.29
E21: C 2.23, Q 1.79, I 1.74, M 2.75, G 2.68, R 2.45
F13: N 3.46, L 3.77, A 3.55, C 2.98, I 3.6, V 3.7, Q 3.16, K 3.16
G11: K 2.93, A 2.31, F 1.8, D 2.59
P3: E 2.86, Q 2.87, L 2.98, I 3.38, W 1.49, N 2.04, F 2.29, D 3.11, G 2.9
V12: S 2.11, Y 2.54, L 3.31
H7: K 2.21, R 2.22, S 2.97, T 2.56, I 2.21, D 2.79
V20: I 2.04, S 2.29, C 2, M 2.7, D 3.13, T 2.48, Q 2.72, P 2.64, G 1.76, Y 2.27

Variants of: B2
Test: as above
Details: c terminus: a fixed tail appended

Protein stability index of substitutions, site by site:
Y17: E 2.2, G 1.47, S 1.68, M 1.77, Q 1.79, C 2.13, T 2.16, L 1.84, I 1.92, W 3.54, F 1.64, V 2.55, K 1.94, A 1.8, H 2.61, N 1.93, R 2.34, D 2.17, P 1.91
T20: L 2.19, H 1.92, N 1.8, C 1.83, W 1.71, Q 2.65, D 2.56, A 2.11, G 1.45, V 2.23, S 2.07, E 1.66, R 2.27, P 1.74, K 1.92, I 1.99, F 1.89, M 1.93, Y 2.17
Q22: R 2.13, G 2.84, A 2.07, D 1.86, M 2.42, C 2, P 1.73, K 1.85, W 1.88, H 1.47, N 2.26, Y 1.9, L 2.52, E 1.73, T 2.2, F 1.85, V 2.16, I 1.95, S 1.79
G16: I 2.94, V 1.85, R 2.21, E 1.7, Q 1.6, Y 2.08, H 2.01, K 1.56, P 3.09, S 2.05, L 2.13, F 2.71, C 1.83, D 1.56, W 2.98, N 1.49, A 1.92, T 2.04, M 2.8
N24: D 2.21, H 2.07, R 2.37, G 2.29, Y 2.11, S 2.27, K 2.33, Q 1.96, C 2.25, I 1.44, L 1.91, A 1.89, W 3.36, E 2.47, P 1.76, F 1.92, T 2, V 2.24, M 1.84
V23: E 1.79, K 2.3, Q 1.72, P 1.89, D 1.54, W 1.87, M 1.88, H 2.11, F 1.73, N 2.12, G 1.75, R 2.13, L 1.7, S 1.51, T 2.09, I 1.47, C 2.25, A 2.21, Y 1.79
P19: R 1.26, G 1.63, T 2.21, D 1.76, S 2.23, Q 2.05, N 1.96, V 2.67, F 2.43, H 2.35, E 2.02, K 2, A 2.04, I 1.84, Y 1.78, W 2.29, M 2.15, L 2.29, C 2.29
I18: A 1.93, E 1.53, C 1.91, L 2.55, V 1.64, D 1.96, G 1.48, Y 1.68, F 1.86, P 1.58, K 1.82, N 1.61, S 2.09, Q 2, H 2.4, W 1.86, R 2.57, M 2.78, T 3.01
T15: V 2.04, E 1.64, P 2.1, S 1.56, R 2.26, F 2.26, N 1.62, L 1.89, G 1.43, W 2.34, M 2.59, K 2.12, A 2.12, C 2.26, I 2.16, Y 2.52, H 2.09, D 1.81, Q 1.53
G14: W 1.69
E21: C 3.11, V 2.59, Y 2.67, P 2.2, A 1.79, F 1.22, L 2.03, T 2.08, D 1.82, M 1.75, N 2.39, H 1.79, K 1.65, Q 1.94, S 1.94, W 1.84, G 1.76, I 2.16, R 2.03
